The values that follow come from PMC9989938 (Immunity, 2023).

Assay [1] concerns the target Biotinylated Pfs230D1 (Plasmodium falciparum 3D7, UniProt P68874, biotin (site not stated)). The assay is described as follows: BLI. In general terms: BLI is a label-free optical method that tracks binding on a fibre tip over time.
The target in assay [2] is Pfs230D1D2 (first two 6-Cys domains of Pfs230), 6xHis (Plasmodium falciparum 3D7, UniProt P68874). The assay is described as follows: crystal structure.
Assay [3] deals with Pfs230D1 D714N variant, 6xHis, from Expi293 cells (P. falciparum, UniProt P68874). Description: BLI.
The target of assay [4] is Pfs230 domain 1 (Pfs230D1), wild-type, 6xHis, from Expi293 cells (P. falciparum, UniProt P68874). The assay is described as follows: BLI.
The target of assay [5] is Pfs230D1 G605R variant, 6xHis, from Expi293 cells (P. falciparum, UniProt P68874, G605R). Description: BLI.
Assay [6] has as its target Pfs230D1 G605S variant, 6xHis, from Expi293 cells (P. falciparum, UniProt P68874, G605S). Description: BLI.

B1: 230AS-73 scFv (scFv, V domains shown)
VH: QVQLQQWGAGLLKPSETLSLTCAVSGASFSGYSWTWIRQSPGKGLEWIGEIDYRGSTNYNPSLKSRVTMSVDTPKNQFSLNLTSLTAADTAIYYCAKGYGGVTLVRGAKINWFDPWGQGTLVTVSS
VL: EIVLTQSPGTLSLSPGERATLSCRASQSVTSRYLAWYQQKPGQAPRLLIFGASSRATGIPDRFSGSGSGTDFTLTISRLEPEDFAVYFCQQYAKSPWTFGQGTKVEIK
With B1, the binding result in assay [1] and in assay [2] was “binds” each time.

B2: 230AL-37 IgG (antibody, V domains shown)
VH: QVQLVESGGGVVQPGGSLRLSCTASGLIFNKYGIYWVRQAPGKGLEWVAFIRYDGTNQFYADSVKGRFTISRDNSKNKVYLQMNSLRAEDTALYYCAKDRGSIIVFDHWGQGTLVTVSS
VL: EIVLTQSPATLSLSPGERVTLSCRASQAVGIYLAWYQQKPGQAPRLLIYHVSKRDTGVPDRFSGSGSGTDFTLTISSLEPEDFAVYYCQQHRNWPPITFGQGTRLEIK
On to B2, for which the dissociation constant (Kd) – broadly, the equilibrium constant for the complex coming apart – worked out at 15 nM in assay [3], 0.34 nM in assay [4], 5.01 nM in assay [5] and 0.65 nM in assay [6]. Further, the koff (commonly the first-order rate constant of dissociation) in assay [3] was determined as 0.00422 s⁻¹; in assay [4] it was 0.000181 s⁻¹; in assay [5], 0.000426 s⁻¹; in assay [6], 0.000147 s⁻¹. In addition, the on-rate (kon) (in general, a measure of how fast the partners come together) in assay [3] came to 291000 M⁻¹ s⁻¹; in assay [4], 538000 M⁻¹ s⁻¹; in assay [5] it was 85100 M⁻¹ s⁻¹; in assay [6], 214000 M⁻¹ s⁻¹.

B3: 230AL-37 scFv (scFv, V domains shown)
VH: QVQLVESGGGVVQPGGSLRLSCTASGLIFNKYGIYWVRQAPGKGLEWVAFIRYDGTNQFYADSVKGRFTISRDNSKNKVYLQMNSLRAEDTALYYCAKDRGSIIVFDHWGQGTLVTVSS
VL: EIVLTQSPATLSLSPGERVTLSCRASQAVGIYLAWYQQKPGQAPRLLIYHVSKRDTGVPDRFSGSGSGTDFTLTISSLEPEDFAVYYCQQHRNWPPITFGQGTRLEIK
Turning to B3, the binding result in assay [2] is recorded as “binds”.
